Molecular target: T1, GST-14-3-3β (UniProt P31946 1-246)
T1 construct: 14-3-3 beta; also called 14-3-3 proteins; source: E. coli DH5α (pGEX), batch-purified on glutathione Sepharose 4B beads
T1 sequence (looked up): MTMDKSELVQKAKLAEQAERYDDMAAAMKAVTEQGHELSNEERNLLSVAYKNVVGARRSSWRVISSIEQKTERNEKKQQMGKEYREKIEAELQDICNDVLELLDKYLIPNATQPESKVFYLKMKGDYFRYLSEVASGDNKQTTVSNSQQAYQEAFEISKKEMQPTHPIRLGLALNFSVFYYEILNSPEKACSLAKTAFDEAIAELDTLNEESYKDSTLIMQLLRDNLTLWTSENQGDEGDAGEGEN
Test: pull-down; 10 µg GST-14-3-3β on glutathione Sepharose 4B beads mixed with 300 µg protein of lysates of HEK-293 cells expressing CD44-CP1 or Flag-CP1, overnight at 4°C; washed thrice in PBS; immunoblot with anti-TSC2
Conditions: one partner purified

- fold enhanced binding in Flag-CP1 expressing cells relative to cells expressing CD44-CP1: ~2 fold
B1: tuberous sclerosis complex 2 (TSC2) tumor suppressor (natural protein)
chain: not shown
notes: TSC2 (tuberin), endogenous in HEK-293 cells; also called tuberin; source: endogenous, HEK-293 lysate

Reference: PMC2821926, “Carboxy Terminal Tail of Polycystin-1 Regulates Localization of TSC2 to Repress mTOR” (PLoS ONE, 2010)
